The values below come from patent publication EP1257175B1.

Holding throughout (test): cell-based or functional assay
The target in test [1] is Sub.Novo, subtilisin from Bacillus amyloliquefaciens (Bacillus amyloliquefaciens) (UniProt P00782).
Test [2] deals with protease derived from Paecilomyces lilacinus CBS 102449 (Paecilomyces lilacinus CBS 102449).
Test [3] concerns the target SAVINASE, subtilisin derived from Bacillus clausii (previously Bacillus lentus NCIB 10309) (Bacillus clausii (previously Bacillus lentus NCIB 10309)) (UniProt P29600).
In test [4] the target is protease derived from Acremonium chrysogenum ATCC 48272 (Acremonium chrysogenum ATCC 48272).
Test [5] has as its target protease derived from Bacillus sp. NCIMB 40484 (Bacillus sp. NCIMB 40484).
In test [6] the target is protease derived from Aspergillus sp. CBS 102448.
In test [7] the target is protease derived from Fusarium oxysporum IFO 4471 (Fusarium oxysporum IFO 4471).
For test [8], the target named is Sub.Novo(Y217L), mutant of subtilisin from Bacillus amyloliquefaciens (Bacillus amyloliquefaciens) (UniProt P00782).
Test [9] has as its target protease derived from Bacillus alcalophilus NCIMB 10438 (Bacillus alcalophilus NCIMB 10438).

For the substance “Streptomyces Subtilisin Inhibitor (SSI) (from UniProt P01006 32-144)”, the Residual activity (%) amounted to 0.1% in [1]; 0.1% in [2]; 0% in test [3]; 0.1% in [4]; 4.3% in [5]; 0.1% in test [6]. In addition, the Residual activity (%) was 0.1% in test [7], 0% in test [8] and 0% in test [9].
